We go through seven molecules from article PMC4860257 (Structure (London, England : 1993), 2016).

Changes are numbered by the printed parent chain. Names and notes keep the numbering of the source.

In general, stoichiometry N refers to a count of units in the complex or per binding partner.

B1: talin R7R8R9 (residues 1357-1822), wild type, His tag removed, as crystallised (domain or fragment, UniProt P26039 1357-1822, looked up)
chain: APGQKECDNALRQLETVRELLENPVQPINDMSYFGCLDSVMENSKVLGEAMTGISQNAKNGNLPEFGDAIATASKALCGFTEAAAQAAYLVGVSDPNSQAGQQGLVEPTQFARANQAIQMACQSLGEPGCTQAQVLSAATIVAKHTSALCNSCRLASARTANPTAKRQFVQSAKEVANSTANLVKTIKALDGDFTEENRAQCRAATAPLLEAVDNLSAFASNPEFSSVPAQISPEGRAAMEPIVISAKTMLESAGGLIQTARALAVNPRDPPRWSVLAGHSRTVSDSIKKLITSMRDKAPGQLECETAIAALNSCLRDLDQASLAAVSQQLAPREGISQEALHTQMLTAVQEISHLIEPLASAARAEASQLGHKVSQMAQYFEPLTLAAVGAASKTLSHPQQMALLDQTKTLAESALQLLYTAKEAGGNPKQAAHTQEALEEAVQMMTEAVEDLTTTLNEAASAAG
B2: GST-tagged talin R9 domain (residues 1655-1822), wild type (domain or fragment, UniProt P26039 1655-1822, looked up)
chain: APGQLECETAIAALNSCLRDLDQASLAAVSQQLAPREGISQEALHTQMLTAVQEISHLIEPLASAARAEASQLGHKVSQMAQYFEPLTLAAVGAASKTLSHPQQMALLDQTKTLAESALQLLYTAKEAGGNPKQAAHTQEALEEAVQMMTEAVEDLTTTLNEAASAAG
B3: GST-tagged talin R9-T1812Y (domain or fragment, UniProt P26039 1655-1822, looked up)
chain: B2 chain with T158Y
B4: GST-tagged talin R9-3Y (E1794Y/E1797Y/Q1801Y) (domain or fragment, UniProt P26039 1655-1822, looked up)
chain: B2 chain with E140Y, E143Y, Q147Y
B5: GST-tagged talin F2F3 domains (residues 196-405) (domain or fragment, UniProt P26039 196-405, looked up)
chain: KFFYSDQNVDSRDPVQLNLLYVQARDDILNGSHPVSFDKACEFAGFQCQIQFGPHNEQKHKAGFLDLKDFLPKEYVKQKGERKIFQAHKNCGQMSEIEAKVRYVKLARSLKTYGVSFFLVKEKMKGKNKLVPRLLGITKECVMRVDEKTKEVIQEWSLTNIKRWAASPKSFTLDFGDYQDGYYSVQTTEGEQIAQLIAGYIDIILKKKKS
B6: His-tagged talin R7R8R9-3Y (E1794Y/E1797Y/Q1801Y) (domain or fragment, UniProt P26039 1357-1822, looked up)
chain: B1 chain with E438Y, E441Y, Q445Y
B7: His-tagged talin R7R8R9-2Y (E1794Y/E1797Y) (domain or fragment, UniProt P26039 1357-1822, looked up)
chain: B1 chain with E438Y, E441Y

The data set “crystal structure” deals with the molecule itself. Kind of data set: crystal structure.
The target of data set [1] is His-tagged talin F2F3-K322A (UniProt P26039 196-405, K322A). In words: pull-down.
The target in data set [2] is His-tagged talin F2F3-KKR (K272A/K274A/R277A) (UniProt P26039 196-405, K272A | K274A | R277A). Kind of data set: pull-down.
The target of data set [3] is His-tagged talin F2F3-K324A (UniProt P26039 196-405, K324A). Kind of data set: pull-down.
The target of data set [4] is His-tagged talin F2F3 domains (residues 196-405), wild type (UniProt P26039 196-405). Kind of data set: pull-down.
The target of data set [5] is B6. Kind of data set: pull-down.
For data set [6], the target named is B7. Kind of data set: pull-down.
Data set [7] concerns the target His-tagged talin R7R8R9 (residues 1357-1822), wild type (UniProt P26039 1357-1822). In words: pull-down.
The data set “SEC-MALS” deals with the molecule itself. Kind of data set: SEC-MALS. (Size exclusion chromatography separates by hydrodynamic size, large species first.)

With B1, the binding result in the data set “crystal structure” is recorded as “binds”.

Consider B2, for which the binding result in data set [1], in [2], in [3] and in data set [4] was “binds” each time.

Turning to B3, in data set [4], the binding result is recorded as “binds”.

For B4, the binding result in [4] is on record as “binds”.

As for B5, the binding result in data set [5], in data set [6] and in data set [7] was “binds” each time.

As to B6, the “stoichiometry N” value in the data set “SEC-MALS” was 2.

For the molecule B7, the “stoichiometry N” value in “SEC-MALS” worked out at 2.
